Assay results reported in patent US12497460B2, “Anti-MSR1 antibodies and methods of use thereof” (REGENERON PHARMACEUTICALS, INC., priority 2018, dated 2025).
Changes are numbered by the printed parent chain. Numbers in names are those of the source.

B1: H1H21227N-N297D: "The 21227N antibody was also produced as a third version with a N297D mutation" (antibody, V domains shown)
VH: QVQLVQSGAEVKKPGASVKVSCKVSGYTLTELSIHWVRQVPGKGLEWMGGFDPEEGETIFAQEFRDRVTLTEDTSPDTAYMELSSLKSEDAAVYYCTTPRYCNNGICYDYWGQGTLVTVSS
VL: DIQMTQSPSSLSASVGDRVTITCRASQSISNYLNWYQQKPGKAPKLLIYTASSLQSGVPSRFSGSGSGTDFTLTISSLQTEDFATYYCQQSYSNFPITFGQGTRLEIKR
B2: H1H21234N-N297Q-LP13 (conjugate)
VH: QVQLQESGPGLVKPSETLSLTCTVTGGSISRNYWSWIRQPPGKGLEWIGYIYYSGSIDYNPSLKSRVTISVDTSKNQFSLKLSSMTAADTAVYYCARDRWNWKYGMDVWGQGTTVIVSS
VL: EIVLTQSPGTLSLSPGERATLSCRASQTVRNNYLAWYHQKPGQAPRLLIYGASSRATGIPDRFSGSGSGTDFTLTISRLEPEDFTVYYCHQYGNSPWTFGQGTKMEIKR
B3: H1H27729P-N297Q: anti-MSR1 antibody "made with an N297Q single point mutation in human Fcγ portion" (antibody, V domains shown)
VH: QVQLVESGGGLVKPGGSLRLSCAASGFIFSDYYMSWIRQAPGKGLEWVSYISSSGTTIYGDSVKGRFTMSRDNAKNSLYLQMNSLRAEDTAVYYCARNYALFDYWGQGTLVTVSS
VL: DIQMTQSPSSLSASVGDRVTITCQASQDISKYLNWYQQKPGKAPKLLIYYTSNLETGVPSRFSGSGSGTDFTFTISSLQPEDIATYYCHQSDYLPFTFGPGTKVDIKR
B4: H1H27731P-N297Q: one of "Twelve anti-MSR1 antibodies"; "made with an N297Q single point mutation in human Fcγ portion" (antibody, V domains shown)
VH: QLQLQESGPGLVKPSETLSLTCTVSGGSISRISYYWGWIRQPPGKGLEWIGSIYDSGSTYYNPSLKSRVTISIDTSKNQFSLKLSSVTAADTAVYYCVRYSSSSAFAFDYWGQGTLVTVSS
VL: DIQMTQSPSSVSASVGDRVTITCRASQGISSWLAWYQQKPGKAPKLLIYAASSLQSGVPSRFSGSGSGTDFTLTISSLQPEDFATYYCQQANSFPFTFGPGTKVDIKR
B5: H1H27747P-N297Q (antibody, V domains shown)
VH: QVQLVESGGAVVQPGRSLRLSCAASGFTFSYYGMHWVRQAPGKGLEWVAVISYDGSKKYYADSVKGRFTISRDNSKNTLYLQMNSLRAEDTAVYYCAKDLTVDFYYGMDVWGQGTTVTVSS
VL: B4 VL with A51T, V58A, Y87F, F96Y, P100Q, V104L, D105E
B6: H1H27754P-N297Q: one of "Twelve anti-MSR1 antibodies"; "made with an N297Q single point mutation in human Fcγ portion" (antibody, V domains shown)
VH: EVQLVESGGGLVQPGGSLRLSCAASGFTFRTYAMTWVRQAPGKGLDWVSAITGDGGNTYYADSVKGRFTISRDNSKNTLYLQMNSLRAEDTAIYYCAKDQRFSFALYYFDYWGQGTLVTVSS
VL: B4 VL with K42N, S52F, S93N, F96W, P100Q, D105E

Tests used:
[1] = target: HMM-mfMSR1 (monkey MSR1 extracellular domain); assay: Biacore surface plasmon resonance binding kinetics of anti-MSR1 mAbs, antibody-capture format; conditions: analyte HMM-mfMSR1, NB = no binding observed; for kd: * = no dissociation observed, kd manually fixed at 1.00E−05; for ka: antibody-capture format; for Kd: calculated from kinetic rates; for t½: dissociative half-life
Experimental: (§1) Binding affinities and kinetic constants of human anti-MSR1 antibodies for different MSR1 reagents were determined by real-time surface plasmon resonance (Biacore 4000). All binding studies were performed in 10 mM HEPES, 150 mM NaCl, 3 mM EDTA, and 0.05% v/v Surfactant Tween-20, pH 7.4 (HBS-ET) running buffer at 25° C. and 37° C.
(§2) The association rate (ka) and dissociation rate (kd) were determined by fitting the real-time binding sensorgrams to a 1:1 binding model with mass transport limitation using Scrubber 2.0c curve-fitting software. Binding dissociation equilibrium constant (KD) and dissociative half-life (t½) were calculated from the kinetic rates as: […]

[2] = target: T1, His9-hMSR1 (human MSR1 extracellular domain) (Homo sapiens, UniProt P21757); assay: as above; conditions: analyte His9-hMSR1, NB = no binding observed; for kd: * = no dissociation observed, kd manually fixed at 1.00E−05; for ka: antibody-capture format; for Kd: calculated from kinetic rates; for t½: dissociative half-life
T1 construct: human MSR1 extracellular domain expressed with a N-terminal nonahistidine tag; His9 (nonahistidine) (N); purchased R&D Systems 2708-MS
T1 sequence (P21757 77-451 limits assumed): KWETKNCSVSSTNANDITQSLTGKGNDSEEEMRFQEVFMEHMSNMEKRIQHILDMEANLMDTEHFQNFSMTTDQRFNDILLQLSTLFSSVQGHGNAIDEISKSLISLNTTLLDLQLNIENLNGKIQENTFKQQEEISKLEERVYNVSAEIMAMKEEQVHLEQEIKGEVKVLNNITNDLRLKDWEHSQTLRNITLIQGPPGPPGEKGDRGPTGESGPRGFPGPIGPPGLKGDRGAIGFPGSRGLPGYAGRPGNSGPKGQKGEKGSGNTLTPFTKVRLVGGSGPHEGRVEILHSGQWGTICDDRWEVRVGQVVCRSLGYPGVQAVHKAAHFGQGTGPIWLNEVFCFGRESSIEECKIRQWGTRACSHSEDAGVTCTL
Experimental: as §1, §2

[3] = target: T1, His9-hMSR1 (human MSR1 extracellular domain); assay: Biacore T200 surface plasmon resonance binding kinetics of anti-MSR1 antibody-drug conjugates and parental antibodies; conditions: 25° C.; for kd: * = no dissociation observed, kd manually fixed at 1.00E−05
Experimental: The MSR1 antibodies disclosed herein were conjugated to various liver X receptor (LXR) payloads or various steroid payloads. This example describes how equilibrium dissociation constant (KD) values for human MSR1 reagents binding to human anti-MSR1 antibody-drug conjugates and their corresponding unconjugated parental antibodies were determined using a real-time surface plasmon resonance-based Biacore T200 biosensor.
All binding studies were performed in 10 mM HEPES, 300 mM NaCl, 3 mM EDTA, and 0.05% v/v Surfactant Tween-20, pH 7.4 (HBS-ET) running buffer at 25° C. The Biacore CM4 sensor chip surface was first derivatized by amine coupling with the goat anti-human Fcγ specific polyclonal antibody (Jackson ImmunoResearch Laboratories, Cat #BR-1008-39) to capture anti-MSR1 monoclonal antibodies. Binding studies were performed on human MSR1 extracellular domain expressed with a N-terminal nonahistidine tag (His9-hMSR1; R&D Systems, Cat #2708-MS).
as §2
Binding kinetics parameters for His9-hMSR1 binding to different anti-MSR1 antibody-LXR ADCs and their unconjugated parental antibodies at 25° C. are shown in Table 19. “LP1” represents a linker-payload for which the payload structure is provided in Example 11.
The binding studies were repeated with anti-MSR1 antibody H1H21234-N297Q and steroid linker payloads (LPs). “LP3” represents a linker-payload for which the structure is provided in Example 23, and “LP13” represents a linker-payload for which the structure is provided in Example 24.

[4] = Table 19, antibody-LXR ADCs and unconjugated antibodies

HMM-mfMSR1 (monkey MSR1 extracellular domain), sequence (as listed by the source): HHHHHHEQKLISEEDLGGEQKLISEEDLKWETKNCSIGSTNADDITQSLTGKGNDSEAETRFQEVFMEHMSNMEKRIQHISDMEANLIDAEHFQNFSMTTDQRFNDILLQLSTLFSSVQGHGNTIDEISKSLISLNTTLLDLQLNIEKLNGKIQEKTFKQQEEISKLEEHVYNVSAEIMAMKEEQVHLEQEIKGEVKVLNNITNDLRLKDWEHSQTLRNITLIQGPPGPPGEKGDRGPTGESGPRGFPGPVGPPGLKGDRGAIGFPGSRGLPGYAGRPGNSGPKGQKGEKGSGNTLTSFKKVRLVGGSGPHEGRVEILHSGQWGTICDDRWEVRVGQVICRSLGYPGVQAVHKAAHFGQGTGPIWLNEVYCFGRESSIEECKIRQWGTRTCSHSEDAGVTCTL

Molecule | kd ([1]; 25° C.) [s⁻¹] | ka ([1]; 25° C.) [M⁻¹ s⁻¹] | Kd ([1]; 25° C.) [nM] | t½ ([1]; 25° C.) [h] | kd ([1]; 37° C.) [s⁻¹] | ka ([1]; 37° C.) [M⁻¹ s⁻¹] | Kd ([1]; 37° C.) [nM] | t½ ([1]; 37° C.) [h] | kd ([2]; 25° C.) | ka ([2]; 25° C.) [M⁻¹ s⁻¹] | Kd ([2]; 25° C.) [nM] | t½ ([2]; 25° C.) [h] | kd ([2]; 37° C.) | ka ([2]; 37° C.) [M⁻¹ s⁻¹] | Kd ([2]; 37° C.) [nM] | t½ ([2]; 37° C.) [h] | ka ([3]; Table 20, antibody-steroid ADCs and unconjugated antibody) [M⁻¹ s⁻¹] | kd ([3]; Table 20) [s⁻¹] | ka [3, 4] [M⁻¹ s⁻¹] | kd ([3]; Table 19)
B1 | 4.03e-05 | 1.35e+06 | 0.0299 | 4.78 | 2.42e-05 | 2.68e+06 | 0.00903 | 7.95 | 3.79e-05 s⁻¹ | 1.14e+06 | 0.0333 | 5.08 | 1.00E−05* s^−1 | 2.73e+06 | 0.00366 | 19.25 |  |  |  | 
B2 |  |  |  |  |  |  |  |  |  |  |  |  |  |  |  |  | 400000 | 1e-05 |  | 
B3 | 0.00212 | 269000 |  |  | 0.00349 | 407000 |  |  | 0.00107 s⁻¹ | 197000 |  |  | 0.00204 s⁻¹ | 239000 |  |  |  |  | 105000 | 0.000906 s⁻¹
B4 | 4.69e-05 | 98200 |  |  | 0.000187 | 278000 |  |  | 2.24e-05 s⁻¹ | 129000 |  |  | 0.000132 s⁻¹ | 286000 |  |  |  |  | 117000 | 1e-05 s⁻¹
B5 | 0.000874 | 231000 |  |  | 0.00228 | 657000 |  |  | 0.000652 s⁻¹ | 243000 |  |  | 0.00276 s⁻¹ | 513000 |  |  |  |  | 117000 | 0.000262 s⁻¹
B6 | 1.76e-05 | 235000 |  |  | 3.53e-05 | 701000 |  |  | 1.00E−05* s^−1 | 290000 |  |  | 2.53e-05 s⁻¹ | 663000 |  |  |  |  | 200000 | 1.00E−05* s^−1
